Our source for the HCVpp neutralization IC50 (1a116 HCVpp, Huh7 cells) and fold weaker binding than HEPC74 and AR3C (ELISA) values is publication doi:10.1101/2025.08.04.668577.

The target in experiment [1] is E2 ectodomain of HCV strain 1a116 (hepatitis C virus (genotype 1a, strain 1a116)).
In experiment [2] the target is E2 ectodomain of HCV strain 1a142 (hepatitis C virus (genotype 1a, strain 1a142)). As to the kind of experiment: ELISA.

B1: HEPC108 IgG (antibody, V domains shown)
VH: QVQLVQSGAEVKKPGSSVKVSCKASGDTFSSSAISWVRQAPGQGLEWMGGSIPIFGATKYAQKFQGRVTITTDKSTSTAYMELSSLRFEDTAVYYCARASIVNISGFVRFRFDSWGQGTLVTVSS
VL: DIQMTQSPSSLSASVGDRVTITCQASQDISNYLNWYQQKPGKAPKLLIYDVSNLEIGVPSRFSGSGSGTEFTLTINSLQPEDLATYFCQHYDDVPPVYTFGQGTSLEIK
B1: in experiment [1], the HCVpp neutralization IC50 (1a116 HCVpp, Huh7 cells) was found to be 0.12 µg/mL. For the same molecule, in experiment [2], the fold weaker binding than HEPC74 and AR3C (ELISA) came to 1.5 fold.
